According to patent US20210340217A1, “NOVEL PEPTIDES AND COMBINATION OF PEPTIDES FOR USE IN IMMUNOTHERAPY AGAINST OVARIAN CANCER AND OTHER CANCERS” (Immatics Biotechnologies GmbH, priority 2017, published 2021):

Key:
HLA-A*03:01 = HLA-A*03:01 (Homo sapiens, UniProt P04439); assay: MHC binding assay (UV-ligand exchange, beta2m ELISA); settings: peptide exchange yield
Procedure, shortened: (§1)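 Peptide–MHC complexes formed by UV-induced exchange of a UV-cleavable peptide for the test peptide. Exchange yield measured by streptavidin-capture ELISA detecting β2m (HRP anti-β2m, TMB, A450) on 100-fold diluted samples. Quantified against refolded HLA-A*02:01/MLA-001 standards (15-500 ng/ml).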

HLA-B*44:02 = HLA-B*44:02 (Homo sapiens, UniProt P01889, A223V/A65T/A93T/A95T/D201E/D98Y/E176V/E187L/E204Q/E69K/G107R/H137Y/K202T/L105A/L119I/N104T/N87E/Q56L/Q94N/R106L/R155S/R180D/S101N/S121R/S35A/S48T/T118I/V36M/W191S/Y140D/Y91S); assay: as above; settings: peptide exchange yield
Procedure, shortened: as §1

| Peptide exchange (HLA-A*03:01) | Peptide exchange (HLA-B*44:02) | Substance |
| --- | --- | --- |
| ++++ (>75% = ++++) | – | 20 (RMASPVNVK; listed as Homo sapiens) [compound 20] |
| +++ (>50 = +++) | – | 21 (AVRKPIVLK; listed as Homo sapiens) [compound 21] |
| ++ (>20% = ++) | – | 22 (SLKERNPLK; listed as Homo sapiens) [compound 22] |
| +++ (>50 = +++) | – | 23 (GMMKGGIRK; listed as Homo sapiens) [compound 23] |
| +++ (>50 = +++) | – | 24 (SMYYPLQLK; listed as Homo sapiens) [compound 24] |
| ++ (>20% = ++) | – | 25 (GTSPPSVEK; listed as Homo sapiens) [compound 25] |
| ++ (>20% = ++) | – | 26 (RISEYLLEK; listed as Homo sapiens) [compound 26] |
| +++ (>50 = +++) | – | 27 (VLYGPAGLGK; listed as Homo sapiens) [compound 27] |
| +++ (>50 = +++) | – | 28 (KTYETNLEIKK; listed as Homo sapiens) [compound 28] |
| ++ (>20% = ++) | – | 30 (ALEVAHRLK; listed as Homo sapiens) [compound 30] |
| +++ (>50 = +++) | – | 83 (GTYAHTVNR; listed as Homo sapiens) [compound 83] |
| ++ (>20% = ++) | – | 84 (KLQPAQTAAK; listed as Homo sapiens) [compound 84] |
| ++ (>20% = ++) | – | 85 (VLLGSLFSRK; listed as Homo sapiens) [compound 85] |
| ++ (>20% = ++) | – | 86 (VVLLGSLFSRK; listed as Homo sapiens) [compound 86] |
| ++ (>20% = ++) | – | 87 (AVAPPTPASK; listed as Homo sapiens) [compound 87] |
| +++ (>50 = +++) | – | 88 (VVHAVFALK; listed as Homo sapiens) [compound 88] |
| ++ (>20% = ++) | – | 89 (RVAELLLLH; listed as Homo sapiens) [compound 89] |
| +++ (>50 = +++) | – | 90 (KVAGERYVYK; listed as Homo sapiens) [compound 90] |
| ++ (>20% = ++) | – | 91 (RSLRYYYEK; listed as Homo sapiens) [compound 91] |
| ++ (>20% = ++) | – | 93 (KILEEHTNK; listed as Homo sapiens) [compound 93] |
| +++ (>50 = +++) | – | 94 (ATFERVLLR; listed as Homo sapiens) [compound 94] |
| ++ (>20% = ++) | – | 95 (QSMYYPLQLK; listed as Homo sapiens) [compound 95] |
| ++ (>20% = ++) | – | 98 (LLQPPPLLAR; listed as Homo sapiens) [compound 98] |
| ++ (>20% = ++) | – | 99 (KVVDRWNEK; listed as Homo sapiens) [compound 99] |
| – | “+++” (>50 = +++) | 202 (HESEATASW; listed as Homo sapiens) [compound 202] |
| – | “++” (>20% = ++) | 203 (IEHSTQAQDTL; listed as Homo sapiens) [compound 203] |

| Peptide exchange (HLA-A*03:01) | Peptide exchange (HLA-B*44:02) | Substance |
| --- | --- | --- |
| – | “+++” (>50 = +++) | 204 (RETSTSEETSL; listed as Homo sapiens) [compound 204] |
| – | “++” (>20% = ++) | 205 (SEITRIEM; listed as Homo sapiens) [compound 205] |
| – | “+++” (>50 = +++) | 206 (SESVTSRTSY; listed as Homo sapiens) [compound 206] |
| – | “+++” (>50 = +++) | 207 (TEARATSDSW; listed as Homo sapiens) [compound 207] |
| – | “++” (>20% = ++) | 208 (TEVSRTEAI; listed as Homo sapiens) [compound 208] |
| – | “++” (>20% = ++) | 209 (TEVSRTEL; listed as Homo sapiens) [compound 209] |
| – | “+++” (>50 = +++) | 210 (VEAADIFQNF; listed as Homo sapiens) [compound 210] |
| – | “+++” (>50 = +++) | 211 (EEKVFPSPLW; listed as Homo sapiens) [compound 211] |
| – | “+++” (>50 = +++) | 212 (MEQKQLQKRF; listed as Homo sapiens) [compound 212] |
| – | “++” (>20% = ++) | 213 (KESIPRWYY; listed as Homo sapiens) [compound 213] |
| – | “++” (>20% = ++) | 214 (VEQTRAGSLL; listed as Homo sapiens) [compound 214] |
| – | “++” (>20% = ++) | 215 (SEDGLPEGIHL; listed as Homo sapiens) [compound 215] |
| – | “+++” (>50 = +++) | 396 (REASGLLSL; listed as Homo sapiens) [compound 396] |
| – | “++” (>20% = ++) | 397 (REGDTVQLL; listed as Homo sapiens) [compound 397] |
| – | “++” (>20% = ++) | 398 (SFEQVVNELF; listed as Homo sapiens) [compound 398] |
| – | “+++” (>50 = +++) | 399 (RELLHLVTL; listed as Homo sapiens) [compound 399] |
| – | “+” (>10% = +) | 400 (GEIEIHLL; listed as Homo sapiens) [compound 400] |
| – | “++” (>20% = ++) | 402 (RELANDELIL; listed as Homo sapiens) [compound 402] |
| – | “++” (>20% = ++) | 403 (EEAQWVRKY; listed as Homo sapiens) [compound 403] |
| – | “++” (>20% = ++) | 404 (NEAIMHQY; listed as Homo sapiens) [compound 404] |
| – | “+” (>10% = +) | 405 (NEIWTHSY; listed as Homo sapiens) [compound 405] |
| – | “+” (>10% = +) | 406 (EDGRLVIEF; listed as Homo sapiens) [compound 406] |
| – | “++” (>20% = ++) | 407 (AEHEGVSVL; listed as Homo sapiens) [compound 407] |
| – | “++” (>20% = ++) | 408 (LEKALQVF; listed as Homo sapiens) [compound 408] |
| – | “+++” (>50 = +++) | 409 (REFVLSKGDAGL; listed as Homo sapiens) [compound 409] |
| – | “+” (>10% = +) | 410 (SEDPSKLEA; listed as Homo sapiens) [compound 410] |

| Peptide exchange (HLA-A*03:01) | Peptide exchange (HLA-B*44:02) | Substance |
| --- | --- | --- |
| – | “+” (>10% = +) | 411 (LELPPILVY; listed as Homo sapiens) [compound 411] |
| – | “++” (>20% = ++) | 412 (QEILTQVKQ; listed as Homo sapiens) [compound 412] |
| – | “++” (>20% = ++) | 413 (IEALSGKIEL; listed as Homo sapiens) [compound 413] |
| – | “++” (>20% = ++) | 414 (EDAALFKAW; listed as Homo sapiens) [compound 414] |
| – | “+++” (>50 = +++) | 415 (REEDAALFKAW; listed as Homo sapiens) [compound 415] |
| – | “+++” (>50 = +++) | 416 (SEEETRVVF; listed as Homo sapiens) [compound 416] |
| – | “++” (>20% = ++) | 417 (AEHFSMIRA; listed as Homo sapiens) [compound 417] |
| – | “+++” (>50 = +++) | 418 (FEDAQGHIW; listed as Homo sapiens) [compound 418] |
| – | “++” (>20% = ++) | 419 (HEFGHVLGL; listed as Homo sapiens) [compound 419] |
| – | “+” (>10% = +) | 420 (FESHSTVSA; listed as Homo sapiens) [compound 420] |
| – | “++” (>20% = ++) | 421 (GEPATTVSL; listed as Homo sapiens) [compound 421] |
| – | “+++” (>50 = +++) | 422 (SETTFSLIF; listed as Homo sapiens) [compound 422] |
| – | “++” (>20% = ++) | 423 (SEVPTGTTA; listed as Homo sapiens) [compound 423] |
| – | “+” (>10% = +) | 424 (TEFPLFSAA; listed as Homo sapiens) [compound 424] |
| – | “+++” (>50 = +++) | 425 (SEVPLPMAI; listed as Homo sapiens) [compound 425] |
| – | “+” (>10% = +) | 426 (PEKTTHSF; listed as Homo sapiens) [compound 426] |
| – | “++” (>20% = ++) | 427 (HESSSHHDL; listed as Homo sapiens) [compound 427] |
| – | “++” (>20% = ++) | 429 (REKFIASVI; listed as Homo sapiens) [compound 429] |
| – | “++” (>20% = ++) | 431 (AEQDPDELNKA; listed as Homo sapiens) [compound 431] |
| – | “+” (>10% = +) | 432 (EEQYIAQF; listed as Homo sapiens) [compound 432] |
| – | “+” (>10% = +) | 433 (SDSQVRAF; listed as Homo sapiens) [compound 433] |
| – | “++” (>20% = ++) | 434 (KEAIREHQM; listed as Homo sapiens) [compound 434] |
| – | “++” (>20% = ++) | 435 (REEFVSIDHL; listed as Homo sapiens) [compound 435] |
| – | “++” (>20% = ++) | 436 (REPGDIFSEL; listed as Homo sapiens) [compound 436] |
| – | “++” (>20% = ++) | 437 (TEAVVTNEL; listed as Homo sapiens) [compound 437] |
| – | “+++” (>50 = +++) | 438 (SEVDSPNVL; listed as Homo sapiens) [compound 438] |
